Results: publication PMC3020801, “A new lysozyme from the eastern oyster, Crassostrea virginica, and a possible evolutionary pathway for i-type lysozymes in bivalves from host defense to digestion” (BMC Evolutionary Biology, 2010)

Target: the molecule itself
Assay: SDS-PAGE under non-reducing conditions; 12.5% acrylamide/bis gel, reduced and non-reduced conditions, Coomassie blue R-250; a second band of >100 kDa only under non-reduced conditions

B1: cv-lysozyme 3 (enzyme, Crassostrea virginica)
chain: SDAPCTNSGGVCQDDHLACHNGHYQSGLCTGGAHRRCCLTSASHTGSFSTGIVSQQCLQCICNVESGCKAIGCHFDVNSDSCGYFQIKEGYWHDCGSPGSSWRSCANDLACASKCVQAYMSRYIGFSGCSHSCESYARIHNGGPAGCKHTNTLGYWSHVHAQGCSHNS
notes: cv-lysozyme 3, Crassostrea virginica, tryptic peptide 1-35 of the purified protein; numbers count on: the mature protein; cv-lysozyme 3, tryptic peptide 37-69; cv-lysozyme 3, tryptic peptide 70-88; cv-lysozyme 3, tryptic peptide 89-103; cv-lysozyme 3, tryptic peptide 104-114; cv-lysozyme 3, tryptic peptide 115-122; cv-lysozyme 3, tryptic peptide 123-138; cv-lysozyme 3, tryptic peptide 139-148; …
binding result: binds
